Experiments:
SHP2-C SH2 = test: SH2 binding enrichment of the phosphorylated peptide, bacterial display (enrichment ratio); higher = better substrate or ligand; peptides without Tyr show the background
Grb2 SH2 = Grb2 SH2 (UniProt P62993); test: as above
c-Src SH2 = test: as above
EPHB2 = EPHB2 (UniProt P29323); test: phosphorylation enrichment, bacterial display (enrichment ratio); higher = better substrate or ligand; peptides without Tyr show the background
AncSZ = test: as above
Fyn = Fyn (UniProt P06241); test: as above
Hck = Hck (UniProt P08631); test: as above
c-Abl (mouse) = test: as above
Fer (mouse) = test: as above
MERTK = MERTK (UniProt Q12866); test: as above
FGFR1 = FGFR1 (UniProt P11362); test: as above
EPHB1 = EPHB1 (UniProt P54762); test: as above
FGFR3 = FGFR3 (UniProt P22607); test: as above
Jak2 = Jak2 (UniProt O60674); test: as above
c-Src = test: as above
Fes = Fes (UniProt P07332); test: as above
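Wherever SH2 binding enrichment of the phosphorylated peptide, bacterial display is given: peptide library displayed on the E. coli surface as eCPX fusions, selected cells deep-sequenced, score is each peptide's frequency after selection divided by its frequency in the input.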
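Wherever phosphorylation enrichment, bacterial display is given: 11-residue human phosphosite peptides and single-mutation variants displayed on the E. coli surface, counted by deep sequencing, each peptide's frequency after selection divided by its frequency in the unselected input library; frequency after pTyr selection over input frequency; kinase dosed for 20-30% of maximal phosphorylation in three min.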

Chain of EPHB2 (P29323 whole entry, looked up): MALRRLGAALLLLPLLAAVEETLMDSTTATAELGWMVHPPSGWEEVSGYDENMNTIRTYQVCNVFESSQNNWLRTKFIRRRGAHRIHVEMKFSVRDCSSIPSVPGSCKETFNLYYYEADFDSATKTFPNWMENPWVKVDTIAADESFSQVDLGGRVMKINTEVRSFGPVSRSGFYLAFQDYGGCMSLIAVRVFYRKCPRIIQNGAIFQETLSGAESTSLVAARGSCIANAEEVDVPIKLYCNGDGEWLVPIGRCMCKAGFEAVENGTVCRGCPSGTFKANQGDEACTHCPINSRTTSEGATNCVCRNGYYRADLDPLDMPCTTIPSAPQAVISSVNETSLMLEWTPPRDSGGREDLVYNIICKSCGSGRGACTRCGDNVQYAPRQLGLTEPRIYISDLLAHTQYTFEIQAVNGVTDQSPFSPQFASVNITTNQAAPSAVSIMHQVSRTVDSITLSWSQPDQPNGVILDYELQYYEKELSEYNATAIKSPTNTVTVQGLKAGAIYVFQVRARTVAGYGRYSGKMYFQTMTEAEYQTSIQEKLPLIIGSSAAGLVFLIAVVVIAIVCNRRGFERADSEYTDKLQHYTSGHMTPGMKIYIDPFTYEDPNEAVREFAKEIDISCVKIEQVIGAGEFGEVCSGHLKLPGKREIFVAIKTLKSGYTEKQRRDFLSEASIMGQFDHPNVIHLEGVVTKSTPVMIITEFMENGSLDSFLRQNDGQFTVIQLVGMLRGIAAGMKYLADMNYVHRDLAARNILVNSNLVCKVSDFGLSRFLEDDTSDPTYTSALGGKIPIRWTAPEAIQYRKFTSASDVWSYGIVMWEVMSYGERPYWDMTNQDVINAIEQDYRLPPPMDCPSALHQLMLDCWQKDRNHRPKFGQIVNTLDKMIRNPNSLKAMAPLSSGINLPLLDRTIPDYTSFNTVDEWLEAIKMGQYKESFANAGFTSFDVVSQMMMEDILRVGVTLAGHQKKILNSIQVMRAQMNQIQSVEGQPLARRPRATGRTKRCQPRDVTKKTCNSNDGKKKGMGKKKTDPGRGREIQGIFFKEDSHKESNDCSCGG
Chain of FGFR3 (P22607 whole entry, looked up): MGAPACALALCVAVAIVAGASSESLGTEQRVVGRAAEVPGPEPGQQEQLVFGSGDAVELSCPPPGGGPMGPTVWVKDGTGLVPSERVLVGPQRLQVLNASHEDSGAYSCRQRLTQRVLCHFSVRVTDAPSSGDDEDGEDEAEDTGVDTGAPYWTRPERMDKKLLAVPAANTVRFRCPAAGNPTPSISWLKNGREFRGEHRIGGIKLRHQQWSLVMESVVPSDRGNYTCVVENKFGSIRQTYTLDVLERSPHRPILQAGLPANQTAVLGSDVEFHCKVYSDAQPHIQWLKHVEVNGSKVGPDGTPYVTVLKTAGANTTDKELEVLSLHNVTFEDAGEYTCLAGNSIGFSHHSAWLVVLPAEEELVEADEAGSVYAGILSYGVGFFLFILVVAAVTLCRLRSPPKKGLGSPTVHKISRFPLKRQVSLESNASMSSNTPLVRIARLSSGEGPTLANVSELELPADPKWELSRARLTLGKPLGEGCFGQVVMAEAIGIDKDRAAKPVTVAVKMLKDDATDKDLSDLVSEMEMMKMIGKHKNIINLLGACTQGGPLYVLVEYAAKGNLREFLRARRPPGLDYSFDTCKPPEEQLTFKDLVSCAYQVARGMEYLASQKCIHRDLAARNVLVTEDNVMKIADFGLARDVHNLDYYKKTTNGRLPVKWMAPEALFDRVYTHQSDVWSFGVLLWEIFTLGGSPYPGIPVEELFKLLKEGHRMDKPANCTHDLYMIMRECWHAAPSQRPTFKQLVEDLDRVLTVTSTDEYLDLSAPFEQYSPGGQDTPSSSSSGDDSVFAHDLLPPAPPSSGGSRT
Chain of Hck (P08631 whole entry, looked up): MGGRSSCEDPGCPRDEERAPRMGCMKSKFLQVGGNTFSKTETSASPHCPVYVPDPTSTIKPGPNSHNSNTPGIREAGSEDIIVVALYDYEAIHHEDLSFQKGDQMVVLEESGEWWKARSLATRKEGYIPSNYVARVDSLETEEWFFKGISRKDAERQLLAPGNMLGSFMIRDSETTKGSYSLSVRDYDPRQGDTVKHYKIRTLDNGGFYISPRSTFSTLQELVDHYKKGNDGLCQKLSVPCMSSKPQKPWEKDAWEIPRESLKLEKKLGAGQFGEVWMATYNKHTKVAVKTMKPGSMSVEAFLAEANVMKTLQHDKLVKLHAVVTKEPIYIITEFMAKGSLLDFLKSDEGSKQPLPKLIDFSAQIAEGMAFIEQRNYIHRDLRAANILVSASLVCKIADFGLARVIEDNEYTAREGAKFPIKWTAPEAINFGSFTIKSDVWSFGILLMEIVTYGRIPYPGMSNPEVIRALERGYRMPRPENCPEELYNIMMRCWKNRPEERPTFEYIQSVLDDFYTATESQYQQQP
Chain of Fes (P07332 whole entry, looked up, the tested form may be a part): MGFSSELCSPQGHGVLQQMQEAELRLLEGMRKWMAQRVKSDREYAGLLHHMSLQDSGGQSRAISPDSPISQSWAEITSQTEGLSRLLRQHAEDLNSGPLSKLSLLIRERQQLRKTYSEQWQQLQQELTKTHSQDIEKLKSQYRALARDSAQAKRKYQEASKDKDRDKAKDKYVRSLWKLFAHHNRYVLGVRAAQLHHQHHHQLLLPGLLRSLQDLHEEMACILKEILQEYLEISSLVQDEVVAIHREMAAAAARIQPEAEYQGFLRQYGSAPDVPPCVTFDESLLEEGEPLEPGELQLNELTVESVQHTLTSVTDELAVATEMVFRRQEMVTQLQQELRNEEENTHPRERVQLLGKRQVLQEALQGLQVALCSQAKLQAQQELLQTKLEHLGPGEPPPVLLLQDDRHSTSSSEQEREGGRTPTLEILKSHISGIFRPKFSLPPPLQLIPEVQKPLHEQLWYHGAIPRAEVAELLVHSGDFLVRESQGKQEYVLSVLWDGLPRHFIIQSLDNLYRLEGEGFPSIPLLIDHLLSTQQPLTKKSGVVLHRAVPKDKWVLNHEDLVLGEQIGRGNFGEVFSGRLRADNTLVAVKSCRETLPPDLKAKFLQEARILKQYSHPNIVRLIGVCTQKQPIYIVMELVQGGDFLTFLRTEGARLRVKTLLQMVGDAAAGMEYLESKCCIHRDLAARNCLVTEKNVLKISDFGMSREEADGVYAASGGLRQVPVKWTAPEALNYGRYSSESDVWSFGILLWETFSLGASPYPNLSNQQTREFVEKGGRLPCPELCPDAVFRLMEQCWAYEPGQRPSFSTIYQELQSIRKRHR
Chain of Fyn (P06241 whole entry, looked up): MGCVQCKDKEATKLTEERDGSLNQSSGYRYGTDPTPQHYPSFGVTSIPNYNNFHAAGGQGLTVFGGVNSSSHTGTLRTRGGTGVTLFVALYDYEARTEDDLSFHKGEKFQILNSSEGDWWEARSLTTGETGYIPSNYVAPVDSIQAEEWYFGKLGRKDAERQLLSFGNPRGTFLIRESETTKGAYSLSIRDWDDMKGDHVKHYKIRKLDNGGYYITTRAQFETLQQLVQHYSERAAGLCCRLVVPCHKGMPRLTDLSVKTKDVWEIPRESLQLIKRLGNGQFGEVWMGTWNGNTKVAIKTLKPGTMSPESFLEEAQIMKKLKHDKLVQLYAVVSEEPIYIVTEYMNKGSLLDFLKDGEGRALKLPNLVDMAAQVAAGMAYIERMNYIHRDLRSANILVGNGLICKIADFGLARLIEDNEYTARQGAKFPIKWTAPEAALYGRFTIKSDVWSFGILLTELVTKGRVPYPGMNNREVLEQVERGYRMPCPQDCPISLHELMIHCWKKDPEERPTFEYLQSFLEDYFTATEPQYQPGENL
Chain of FGFR1 (P11362 whole entry, looked up): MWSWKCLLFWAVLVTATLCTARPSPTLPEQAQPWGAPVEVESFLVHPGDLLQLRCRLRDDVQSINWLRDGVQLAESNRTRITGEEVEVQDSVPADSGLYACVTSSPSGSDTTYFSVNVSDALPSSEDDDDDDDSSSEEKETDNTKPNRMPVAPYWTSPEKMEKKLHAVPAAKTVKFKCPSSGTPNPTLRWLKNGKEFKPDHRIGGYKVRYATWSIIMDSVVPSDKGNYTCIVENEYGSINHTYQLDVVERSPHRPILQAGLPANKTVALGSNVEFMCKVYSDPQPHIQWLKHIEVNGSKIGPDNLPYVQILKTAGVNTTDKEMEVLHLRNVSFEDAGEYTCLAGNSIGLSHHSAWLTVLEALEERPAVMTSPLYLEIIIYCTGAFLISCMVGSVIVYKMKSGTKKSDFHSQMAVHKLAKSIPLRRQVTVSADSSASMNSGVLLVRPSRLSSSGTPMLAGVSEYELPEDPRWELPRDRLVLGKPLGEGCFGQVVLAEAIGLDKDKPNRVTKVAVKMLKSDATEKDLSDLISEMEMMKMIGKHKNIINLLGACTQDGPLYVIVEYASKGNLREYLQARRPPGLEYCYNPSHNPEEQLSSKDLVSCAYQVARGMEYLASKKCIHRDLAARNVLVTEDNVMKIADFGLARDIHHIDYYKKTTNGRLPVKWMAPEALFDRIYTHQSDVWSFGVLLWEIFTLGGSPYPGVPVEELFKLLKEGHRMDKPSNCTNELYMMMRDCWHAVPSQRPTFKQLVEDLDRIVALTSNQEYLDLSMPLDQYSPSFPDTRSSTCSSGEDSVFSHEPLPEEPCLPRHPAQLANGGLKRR
Chain of Grb2 SH2 (P62993 whole entry, looked up): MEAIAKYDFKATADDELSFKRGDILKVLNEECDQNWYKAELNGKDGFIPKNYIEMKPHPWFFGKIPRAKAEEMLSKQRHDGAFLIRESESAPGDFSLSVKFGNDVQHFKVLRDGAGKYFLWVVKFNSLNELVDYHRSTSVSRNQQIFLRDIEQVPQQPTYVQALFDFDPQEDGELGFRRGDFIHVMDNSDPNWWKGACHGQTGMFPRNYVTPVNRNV

| Sequence | SH2 binding enrichment (SHP2-C SH2) | SH2 binding enrichment (Grb2 SH2) | SH2 binding enrichment (c-Src SH2) | phosphorylation enrichment (EPHB2) | phosphorylation enrichment (AncSZ) | phosphorylation enrichment (Fyn) | phosphorylation enrichment (Hck) | phosphorylation enrichment (c-Abl (mouse)) | phosphorylation enrichment (Fer (mouse)) | phosphorylation enrichment (MERTK) | phosphorylation enrichment (FGFR1) | phosphorylation enrichment (EPHB1) | phosphorylation enrichment (FGFR3) | phosphorylation enrichment (Jak2) | phosphorylation enrichment (c-Src) | phosphorylation enrichment (Fes) |
| --- | --- | --- | --- | --- | --- | --- | --- | --- | --- | --- | --- | --- | --- | --- | --- | --- |
| TNDMRYPMKSE [TGDS_Y302] | 0.697 | 0.861 | 0.548 | 0.46 | 0.675 | 0.445 | 0.438 | 0.557 | 0.359 | 0.469 | 0.486 | 0.345 | 0.523 | 0.579 | 0.424 | 0.672 |
| NREGVYTVSAP [TGFBI_Y537_F540S] | 0.769 | 0.834 | 0.472 | 0.517 | 0.757 | 10.9 | 2.34 | 0.565 | 1.12 | 1.16 | 0.462 | 0.537 | 0.523 | 0.719 | 8.38 | 0.705 |
| TNFRLYLRSLE [MTM1_Y71_YF] | 0.661 | 0.678 | 0.449 | 0.782 | 1.37 | 0.449 | 0.513 | 0.798 | 0.612 | 0.43 | 0.538 | 0.895 | 0.964 | 1.29 | 0.476 | 1.49 |
| KSSDVYVSYDY [SORL1_Y136] | 0.768 | 0.729 | 1.18 | 1.92 | 1.16 | 5.35 | 2.18 | 0.712 | 0.914 | 1.97 | 4.12 | 1.38 | 2.64 | 1.08 | 4.15 | 1.07 |
| ALAAPYVLFPG [CEFIP_Y1332_YF] | 1.21 | 0.839 | 3.49 | 0.452 | 0.775 | 0.739 | 0.641 | 0.598 | 0.543 | 1.29 | 3.79 | 0.581 | 2.44 | 1.21 | 4.54 | 0.726 |
| GSQERDFELVE [TSC2_Y407_Y407D] | 0.612 | 0.881 | 0.632 | 0.492 | 1.08 | 0.522 | 0.493 | 0.69 | 0.46 | 0.484 | 0.489 | 0.466 | 0.717 | 1.07 | 0.523 | 1.04 |
| FTFTSYFMHWV [IGHV1-46_Y51_YF] | 1.19 | 1.71 | 1.03 | 0.648 | 1.16 | 0.474 | 0.451 | 1.05 | 0.495 | 0.391 | 0.5 | 0.437 | 0.765 | 2.37 | 0.608 | 1.13 |
| QTPVLYTMLDH [MPZ_Y220_A221T] | 11.8 | 0.866 | 3.44 | 1.78 | 0.896 | 2.02 | 5.48 | 0.674 | 10.7 | 13.4 | 2.85 | 4.45 | 3.51 | 0.907 | 3 | 1.14 |
